PMC6372068 (Nature, 2018)

Tests used:
[1] = target: fatty acid synthase (FAS) α subunit, C-terminally fused to GFP (S. cerevisiae) (UniProt P19097); test: co-IP
[2] = target: T1, methionyl-tRNA synthetase MetRS, C-terminally fused to GFP (S. cerevisiae, UniProt P00958 1-751); test: selective ribosome profiling
T1 sequence: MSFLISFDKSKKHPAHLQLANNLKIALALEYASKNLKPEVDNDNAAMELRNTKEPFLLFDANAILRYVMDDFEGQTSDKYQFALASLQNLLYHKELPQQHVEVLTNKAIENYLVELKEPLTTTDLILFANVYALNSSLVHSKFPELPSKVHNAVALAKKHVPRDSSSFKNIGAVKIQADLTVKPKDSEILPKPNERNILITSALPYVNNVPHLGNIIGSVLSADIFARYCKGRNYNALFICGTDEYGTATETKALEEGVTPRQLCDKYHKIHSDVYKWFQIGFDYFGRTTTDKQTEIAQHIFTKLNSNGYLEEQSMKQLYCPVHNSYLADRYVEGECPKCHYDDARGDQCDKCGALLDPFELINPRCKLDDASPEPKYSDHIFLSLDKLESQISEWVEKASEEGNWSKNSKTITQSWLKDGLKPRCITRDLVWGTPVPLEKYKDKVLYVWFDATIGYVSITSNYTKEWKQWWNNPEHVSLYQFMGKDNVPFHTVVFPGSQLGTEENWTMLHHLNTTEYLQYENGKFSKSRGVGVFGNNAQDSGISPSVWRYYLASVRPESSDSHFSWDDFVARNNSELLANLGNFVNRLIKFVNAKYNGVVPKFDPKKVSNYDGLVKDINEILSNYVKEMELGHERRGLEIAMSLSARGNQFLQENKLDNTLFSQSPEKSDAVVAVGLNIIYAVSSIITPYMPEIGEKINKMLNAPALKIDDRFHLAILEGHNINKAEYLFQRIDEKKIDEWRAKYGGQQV

[3] = target: T2, fatty acid synthase (FAS) β subunit, C-terminally fused to GFP (S. cerevisiae, UniProt P07149 1-2051); test: selective ribosome profiling
[4] = target: T2, fatty acid synthase (FAS) β subunit, …; test: co-IP

T2 sequence (P07149 whole entry, the tested form may be a part): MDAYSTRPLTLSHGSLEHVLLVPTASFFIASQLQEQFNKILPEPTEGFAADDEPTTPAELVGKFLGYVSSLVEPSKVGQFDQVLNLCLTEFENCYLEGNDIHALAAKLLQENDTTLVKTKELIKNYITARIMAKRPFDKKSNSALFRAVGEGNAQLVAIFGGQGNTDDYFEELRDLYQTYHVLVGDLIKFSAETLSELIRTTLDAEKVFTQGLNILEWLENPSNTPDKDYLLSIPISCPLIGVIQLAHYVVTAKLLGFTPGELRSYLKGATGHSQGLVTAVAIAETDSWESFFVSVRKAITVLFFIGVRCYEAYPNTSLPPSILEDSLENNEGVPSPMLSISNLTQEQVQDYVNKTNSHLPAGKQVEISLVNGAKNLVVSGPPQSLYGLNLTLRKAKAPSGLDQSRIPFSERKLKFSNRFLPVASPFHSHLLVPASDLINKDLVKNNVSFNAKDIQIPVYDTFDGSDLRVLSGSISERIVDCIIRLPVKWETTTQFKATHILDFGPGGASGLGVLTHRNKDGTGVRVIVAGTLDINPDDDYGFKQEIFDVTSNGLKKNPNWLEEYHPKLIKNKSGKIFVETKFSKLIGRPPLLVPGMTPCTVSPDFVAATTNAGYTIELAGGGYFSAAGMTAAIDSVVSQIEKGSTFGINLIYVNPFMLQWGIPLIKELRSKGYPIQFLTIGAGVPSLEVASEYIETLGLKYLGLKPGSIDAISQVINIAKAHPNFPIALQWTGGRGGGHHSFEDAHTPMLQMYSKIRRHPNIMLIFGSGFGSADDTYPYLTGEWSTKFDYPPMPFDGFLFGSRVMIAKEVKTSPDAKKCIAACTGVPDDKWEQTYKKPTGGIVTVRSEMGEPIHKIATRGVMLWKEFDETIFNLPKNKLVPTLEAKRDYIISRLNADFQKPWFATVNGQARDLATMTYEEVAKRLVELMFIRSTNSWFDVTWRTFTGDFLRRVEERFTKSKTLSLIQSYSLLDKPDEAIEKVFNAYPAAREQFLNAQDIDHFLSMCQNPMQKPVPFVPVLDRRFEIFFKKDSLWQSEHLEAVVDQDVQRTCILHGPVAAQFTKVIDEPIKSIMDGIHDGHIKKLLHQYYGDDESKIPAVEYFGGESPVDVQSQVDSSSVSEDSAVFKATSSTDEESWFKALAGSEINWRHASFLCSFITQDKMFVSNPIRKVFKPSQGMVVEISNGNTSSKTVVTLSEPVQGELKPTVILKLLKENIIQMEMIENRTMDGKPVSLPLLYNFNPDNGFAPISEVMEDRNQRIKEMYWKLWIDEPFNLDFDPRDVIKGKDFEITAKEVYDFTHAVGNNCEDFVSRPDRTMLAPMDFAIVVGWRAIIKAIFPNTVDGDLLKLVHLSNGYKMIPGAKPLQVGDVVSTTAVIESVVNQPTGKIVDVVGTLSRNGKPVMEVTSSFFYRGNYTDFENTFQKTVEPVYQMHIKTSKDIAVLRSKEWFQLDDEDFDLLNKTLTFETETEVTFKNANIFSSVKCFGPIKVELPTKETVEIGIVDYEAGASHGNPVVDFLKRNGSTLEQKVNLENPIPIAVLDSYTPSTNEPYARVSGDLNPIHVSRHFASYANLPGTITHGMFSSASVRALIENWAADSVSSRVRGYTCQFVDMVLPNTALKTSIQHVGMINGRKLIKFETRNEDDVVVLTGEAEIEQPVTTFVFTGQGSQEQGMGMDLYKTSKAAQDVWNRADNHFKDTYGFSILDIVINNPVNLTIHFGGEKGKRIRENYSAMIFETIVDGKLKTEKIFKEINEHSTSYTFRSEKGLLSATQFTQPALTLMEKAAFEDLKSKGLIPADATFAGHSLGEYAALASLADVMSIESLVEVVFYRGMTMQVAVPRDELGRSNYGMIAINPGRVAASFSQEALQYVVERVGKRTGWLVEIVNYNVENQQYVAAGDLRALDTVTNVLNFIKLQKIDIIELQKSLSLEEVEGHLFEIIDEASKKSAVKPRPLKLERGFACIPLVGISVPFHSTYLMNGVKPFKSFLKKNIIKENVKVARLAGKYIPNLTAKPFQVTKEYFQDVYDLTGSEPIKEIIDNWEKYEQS

FAS β subunit, untagged, of the mature FAS, P07149 1-2051
stoichiometry N [1]: 1

B1: nascent GluRS (ribosome-nascent chain complexes) (natural protein)
chain: MPSTLTINGKAPIVAYAELIAARIVNALAPNSIAIKLVDDKKAPAAKLDDATEDVFNKITSKFAAIFDNGDKEQVAKWVNLAQKELVIKNFAKLSQSLETLDSQLNLRTFILGGLKYSAADVACWGALRSNGMCGSIIKNKVDVNVSRWYTLLEMDPIFGEAHDFLSKSLLELKKSANVGKKKETHKANFEIDLPDAKMGEVVTRFPPEPSGYLHIGHAKAALLNQYFAQAYKGKLIIRFDDTNPSKEKEEFQDSILEDLDLLGIKGDRITYSSDYFQEMYDYCVQMIKDGKAYCDDTPTEKMREERMDGVASARRDRSVEENLRIFTEEMKNGTEEGLKNCVRAKIDYKALNKTLRDPVIYRCNLTPHHRTGSTWKIYPTYDFCVPIVDAIEGVTHALRTIEYRDRNAQYDWMLQALRLRKVHIWDFARINFVRTLLSKRKLQWMVDKDLVGNWDDPRFPTVRGVRRRGMTVEGLRNFVLSQGPSRNVINLEWNLIWAFNKKVIDPIAPRHTAIVNPVKIHLEGSEAPQEPKIEMKPKHKKNPAVGEKKVIYYKDIVVDKDDADVINVDEEVTLMDWGNVIITKKNDDGSMVAKLNLEGDFKKTKHKLTWLADTKDVVPVDLVDFDHLITKDRLEEDESFEDFLTPQTEFHTDAIADLNVKDMKIGDIIQFERKGYYRLDALPKDGKPYVFFTIPDGKSVNKYGAKK
fold enrichment in footprints [2]: ≥ 30 fold

B2: nascent FAS α subunit (ribosome-nascent chain complexes) (natural protein)
chain: MKPEVEQELAHILLTELLAYQFASPVRWIETQDVFLKDFNTERVVEIGPSPTLAGMAQRTLKNKYESYDAALSLHREILCYSKDAKEIYYTPDPSELAAKEEPAKEEAPAPTPAASAPAPAAAAPAPVAAAAPAAAAAEIADEPVKASLLLHVLVAHKLKKSLDSIPMSKTIKDLVGGKSTVQNEILGDLGKEFGTTPEKPEETPLEELAETFQDTFSGALGKQSSSLLSRLISSKMPGGFTITVARKYLQTRWGLPSGRQDGVLLVALSNEPAARLGSEADAKAFLDSMAQKYASIVGVDLSSAASASGAAGAGAAAGAAMIDAGALEEITKDHKVLARQQLQVLARYLKMDLDNGERKFLKEKDTVAELQAQLDYLNAELGEFFVNGVATSFSRKKARTFDSSWNWAKQSLLSLYFEIIHGVLKNVDREVVSEAINIMNRSNDALIKFMEYHISNTDETKGENYQLVKTLGEQLIENCKQVLDVDPVYKDVAKPTGPKTAIDKNGNITYSEEPREKVRKLSQYVQEMALGGPITKESQPTIEEDLTRVYKAISAQADKQDISSSTRVEFEKLYSDLMKFLESSKEIDPSQTTQLAGMDVEDALDKDSTKEVASLPNKSTISKTVSSTIPRETIPFLHLRKKTPAGDWKYDRQLSSLFLDGLEKAAFNGVTFKDKYVLITGAGKGSIGAEVLQGLLQGGAKVVVTTSRFSKQVTDYYQSIYAKYGAKGSTLIVVPFNQGSKQDVEALIEFIYDTEKNGGLGWDLDAIIPFAAIPEQGIELEHIDSKSEFAHRIMLTNILRMMGCVKKQKSARGIETRPAQVILPMSPNHGTFGGDGMYSESKLSLETLFNRWHSESWANQLTVCGAIIGWTRGTGLMSANNIIAEGIEKMGVRTFSQKEMAFNLLGLLTPEVVELCQKSPVMADLNGGLQFVPELKEFTAKLRKELVETSEVRKAVSIETALEHKVVNGNSADAAYAQVEIQPRANIQLDFPELKPYKQVKQIAPAELEGLLDLERVIVVTGFAEVGPWGSARTRWEMEAFGEFSLEGCVEMAWIMGFISYHNGNLKGRPYTGWVDSKTKEPVDDKDVKAKYETSILEHSGIRLIEPELFNGYNPEKKEMIQEVIVEEDLEPFEASKETAEQFKHQHGDKVDIFEIPETGEYSVKLLKGATLYIPKALRFDRLVAGQIPTGWNAKTYGISDDIISQVDPITLFVLVSVVEAFIASGITDPYEMYKYVHVSEVGNCSGSGMGGVSALRGMFKDRFKDEPVQNDILQESFINTMSAWVNMLLISSSGPIKTPVGACATSVESVDIGVETILSGKARICIVGGYDDFQEEGSFEFGNMKATSNTLEEFEHGRTPAEMSRPATTTRNGFMEAQGAGIQIIMQADLALKMGVPIYGIVAMAATATDKIGRSVPAPGKGILTTAREHHSSVKYASPNLNMKYRKRQLVTREAQIKDWVENELEALKLEAEEIPSEDQNEFLLERTREIHNEAESQLRAAQQQWGNDFYKRDPRIAPLRGALATYGLTIDDLGVASFHGTSTKANDKNESATINEMMKHLGRSEGNPVIGVFQKFLTGHPKGAAGAWMMNGALQILNSGIIPGNRNADNVDKILEQFEYVLYPSKTLKTDGVRAVSITSFGFGQKGGQAIVVHPDYLYGAITEDRYNEYVAKVSAREKSAYKFFHNGMIYNKLFVSKEHAPYTDELEEDVYLDPLARVSKDKKSGSLTFNSKNIQSKDSYINANTIETAKMIENMTKEKVSNGGVGVDVELITSINVENDTFIERNFTPQEIEYCSAQPSVQSSFAGTWSAKEAVFKSLGVKSLGGGAALKDIEIVRVNKNAPAVELHGNAKKAAEEAGVTDVKVSISHDDLQAVAVAVSTKK
fold enrichment of selected footprints over total ribosome-protected footprints [3]: ~40 fold

B3: FAS α subunit, untagged, of the mature FAS (natural protein)
chain: MKPEVEQELAHILLTELLAYQFASPVRWIETQDVFLKDFNTERVVEIGPSPTLAGMAQRTLKNKYESYDAALSLHREILCYSKDAKEIYYTPDPSELAAKEEPAKEEAPAPTPAASAPAPAAAAPAPVAAAAPAAAAAEIADEPVKASLLLHVLVAHKLKKSLDSIPMSKTIKDLVGGKSTVQNEILGDLGKEFGTTPEKPEETPLEELAETFQDTFSGALGKQSSSLLSRLISSKMPGGFTITVARKYLQTRWGLPSGRQDGVLLVALSNEPAARLGSEADAKAFLDSMAQKYASIVGVDLSSAASASGAAGAGAAAGAAMIDAGALEEITKDHKVLARQQLQVLARYLKMDLDNGERKFLKEKDTVAELQAQLDYLNAELGEFFVNGVATSFSRKKARTFDSSWNWAKQSLLSLYFEIIHGVLKNVDREVVSEAINIMNRSNDALIKFMEYHISNTDETKGENYQLVKTLGEQLIENCKQVLDVDPVYKDVAKPTGPKTAIDKNGNITYSEEPREKVRKLSQYVQEMALGGPITKESQPTIEEDLTRVYKAISAQADKQDISSSTRVEFEKLYSDLMKFLESSKEIDPSQTTQLAGMDVEDALDKDSTKEVASLPNKSTISKTVSSTIPRETIPFLHLRKKTPAGDWKYDRQLSSLFLDGLEKAAFNGVTFKDKYVLITGAGKGSIGAEVLQGLLQGGAKVVVTTSRFSKQVTDYYQSIYAKYGAKGSTLIVVPFNQGSKQDVEALIEFIYDTEKNGGLGWDLDAIIPFAAIPEQGIELEHIDSKSEFAHRIMLTNILRMMGCVKKQKSARGIETRPAQVILPMSPNHGTFGGDGMYSESKLSLETLFNRWHSESWANQLTVCGAIIGWTRGTGLMSANNIIAEGIEKMGVRTFSQKEMAFNLLGLLTPEVVELCQKSPVMADLNGGLQFVPELKEFTAKLRKELVETSEVRKAVSIETALEHKVVNGNSADAAYAQVEIQPRANIQLDFPELKPYKQVKQIAPAELEGLLDLERVIVVTGFAEVGPWGSARTRWEMEAFGEFSLEGCVEMAWIMGFISYHNGNLKGRPYTGWVDSKTKEPVDDKDVKAKYETSILEHSGIRLIEPELFNGYNPEKKEMIQEVIVEEDLEPFEASKETAEQFKHQHGDKVDIFEIPETGEYSVKLLKGATLYIPKALRFDRLVAGQIPTGWNAKTYGISDDIISQVDPITLFVLVSVVEAFIASGITDPYEMYKYVHVSEVGNCSGSGMGGVSALRGMFKDRFKDEPVQNDILQESFINTMSAWVNMLLISSSGPIKTPVGACATSVESVDIGVETILSGKARICIVGGYDDFQEEGSFEFGNMKATSNTLEEFEHGRTPAEMSRPATTTRNGFMEAQGAGIQIIMQADLALKMGVPIYGIVAMAATATDKIGRSVPAPGKGILTTAREHHSSVKYASPNLNMKYRKRQLVTREAQIKDWVENELEALKLEAEEIPSEDQNEFLLERTREIHNEAESQLRAAQQQWGNDFYKRDPRIAPLRGALATYGLTIDDLGVASFHGTSTKANDKNESATINEMMKHLGRSEGNPVIGVFQKFLTGHPKGAAGAWMMNGALQILNSGIIPGNRNADNVDKILEQFEYVLYPSKTLKTDGVRAVSITSFGFGQKGGQAIVVHPDYLYGAITEDRYNEYVAKVSAREKSAYKFFHNGMIYNKLFVSKEHAPYTDELEEDVYLDPLARVSKDKKSGSLTFNSKNIQSKDSYINANTIETAKMIENMTKEKVSNGGVGVDVELITSINVENDTFIERNFTPQEIEYCSAQPSVQSSFAGTWSAKEAVFKSLGVKSLGGGAALKDIEIVRVNKNAPAVELHGNAKKAAEEAGVTDVKVSISHDDLQAVAVAVSTKK
stoichiometry N [4]: 1
